For assay [1], the target named is T1, Biotinylated SARS-CoV-2 S1 protein (ACRO, S1N-C82E8) (UniProt P0DTC2 16-685). As to the kind of experiment: BLI.
Assay [2] addresses T1, Biotinylated SARS-CoV-2 S1 protein …. As to the kind of experiment: BLI. The source holds these as a separate data set.

Changes are numbered by the printed parent chain. Where two headings read alike, the source gives them in different places.

B1: Ab 27 scFv-Fc (scFv, V domains shown)
VH: QVQLVQSGTEVKKPGASVKVSCKASGYSFTGSHLHWVRQAPGQGLEWMGWINPDSGVINYAQKFQGRVTLTRDTSISTAYMELSGLRSDDTAVYYCARDKAIGYVWALDYWGQGTLVTVSS
VL: QSALTQPPSVSGSPGQSVTISCTGTSSDVGTYNRVSWYQQPPGKAPKLMIYEVSNRPSGVSNRFSGSKSGNTASLTISGLQAEDEADYYCSSYTRTFTYVFGTGTKVTVL
On to B1, for which the equilibrium dissociation constant (Kd) in assay [1] and in assay [2] was less than 0.001 nM in each case.

B2: S1-RBD-R3-E1-E8 Ab (Ab 37) (scFv, V domains shown)
VH: QVQLVQSGAEVKKPGASVKVSCKASGYTFTSYGISWVRQAPGQGLEWMGWISTYNGNTNYAQKLQGRVTMTTDTSTSTAYMEVRSLRSDDTAVYYCARDVFGHFDYWGQGTLVTVSS
VL: NFMLTQPHSVSESPGKTVLISCTRSSGNIATNYVQWYQQRPGSAPTTVIYEDNQRPSGVPDRFSGSIDSSSNSASLTISGLKTEDEADYYCKSYDDGNHVFGGGTKLTVL
In turn, B2 had a Kd in assay [1] of 0.907 nM.

B3: Ab 25 scFv-Fc (scFv, V domains shown)
VH: QVQLVQSGGGLVQPGGSLRLSCAASGFTFSSYWMSWVRQAPGKGLEWVANIKQDGSEKYYVDSVKGRFTISRDNAKNSLYLQMNSLRAEDTAVYYCARGFYYYGAFDIWGQGTTVTVSS
VL: NFMLTQPHSVSESPGKTVTISCTGSSGSIASNYVQWYQQRPGSAPTTVIYEDNQRPSGVPDRFSGSIGSSSNSASLTISGLKTEDEADYYCQSYDSSNHWVFGGGTKLTVL
With B3, the Kd in assay [1] and in assay [2] was 10.1 nM in each case.

B4: Ab 20 (scFv, V domains shown)
VH: QVQLVQSGGGSVKPGGSLRLSCAASGYRLSDYYMHWVRQAPGKGLEWVANIKQDGSEKYYVDSVKGRFTISRDNAKNSLYLQMNSLRAEDTAVYYCARVRGWSRGYFDYWGQGTLVTVSS
VL: B3 VL with G68D, T77L
On to B4, for which the dissociation constant Kd in assay [1] and in assay [2] was 5.01 nM each time.

B5: S1-RBD-R3-T1-B12 Ab (Ab_31) (scFv, V domains shown)
VH: QVQLVQSGAEVKKPGSSVKVSCKASGGTFSSYTISWVRQAPGQGLEWMGGIIPILGTPNYAQKFQDRVAITADKSTSTAYMELSSLRSEDTAVYYCAVGSGWYSGFDYWGQGTLVTVSS
VL: B3 VL with N53S, G68D, Y94F, D95H, S96N, H99P, W100V, V101I
B5 yielded a Kd in assay [1] of 2040 nM.

B6: Ab 15 scFv-Fc (scFv, V domains shown)
VH: QVQLVQSGGGLVKPGRSLRLSCTASGFTFGDYAMSWFRQAPGKGLEWVGFIRSKAYGGTTGYAASVKGRFTISRDDSKSIAYLQMNSLKTEDTAVYYCTTADDDMDVWGKGTTVTVSS
VL: NFMLTQPHSVSESPGKTVTISCTRSSGTIASNYVQWYQQRPGSAPTTVIYEDNQRPSGVPDRFSGSIDRSSNSASLTISGLTPDDEADYYCQSYDTSNHYVFGTGTKVTVL
As for B6, the Kd in assay [1] and in assay [2] was 0.033 nM each time.

B7: Ab_13 (scFv, V domains shown)
VH: QVTLKESGPKLVKPTQTLTLTCTFSGFSLSTSGVGVGWIRQPPGKALEWLALIYWDDDKRYSPSLKSRLTIAKDTSKYQVVLTMTNMDPVDTATYYCARISGSGYFYPFDIWGQGTMVTVSA
VL: B3 VL with G24R, G68D, H99L
B7: the Kd in assay [1] and in assay [2] was 1.14 nM each time.

B8: RBD-R3-T1-H3 (Ab_2) (scFv, V domains shown)
VH: EVQLVQSGAEVKKPGSSVKVSCKTSGYTFTTSGISWVRQAPGQGLEWMGWISAYNGNTNYAQKLQGRVTMTTDTSTSTAYMELRSLRSDDTAVYYCARDFHLYYGMDVWGKGTLVTVSS
VL: QSALTQPPSASGSPGQSVTISCTGTSSDVGAYNYVSWYQQHPGKAPKLLIYDVTKRPPGVPDRFSGSKSGNTASLTVSGLQAEDEADYYCAVWDDGLNGRVVFGGGTKLTVL
For B8, the dissociation constant Kd in assay [1] is less than 0.001 nM.

B9: Ab_18 (scFv, V domains shown)
VH: EVQLVQSGGGVVQPGRSLRVSCAASGFSFSRYGMHWVRQAPGKGLEWVAFIRHDGSKKYYADSVEGRFTISRDNSRNTVSLEMNSLRGEDTAVYYCAKDGRLEAALDDWGQGTLVTVSS
VL: NFMLTQPHSMSGSAGKTVTVSCIRSSGSIANNFVQWYQQRPGSAPTTVIYEDNQRPSGVPDRFSGSIDSSSNSASLTISGLKTEDEADYYCQSYDSSNLVFGGGTRLTVL
B9: the dissociation constant (Kd) in assay [1] and in assay [2] was 0.121 nM each time.

B10: Ab 21 (scFv, V domains shown)
VH: QVQLVQSGGGLVQPGGSLRLSCATSGFTFDDYAMHWVRQAPGKGLEWVSGISWNSGSIGYVDSVKGRFTISRDNRNNKVYLQMNNLRAEDTAVYYCARDWWGSIDHWGLGTLVTVSS
VL: QSALTQPRSVSGSPGQSVTISCTGTSSDVGGYDYVSWYQQHPGKAPKLIIYDVSKRPSGVPDRFSGSKSGNTASLTVSGLQAEDEADYYCSSYTSSSPVVFGGGTKLTVL
Take B10: the equilibrium dissociation constant (Kd) in assay [1] and in assay [2] was 1.28 nM each time.

B11: S1-R3-T1-C4 (Ab_8) (scFv, V domains shown)
VH: QVQLVQSGAEVKKPGSSVKVSCKASGGTFSSYAISWLRQAPGQGLEWMGWINPNSGGTNYAQKFQGRVTMTRDTSISTAYMELSRLRSDDTAVYYCARGSGGYYLGWGQGTLVTVSS
VL: QPGLTQPPSVSKGLRQTATLTCTGNSNNVGNQGAAWLQQHQGHPPKLLSYMNNNRPPGISERFSASRSGNTASLTITGLQPEDEADYYCSAWDSSLSRWVFGGGTKLSVL
For the molecule B11, binding in assay [1] was characterised by a dissociation constant (Kd) of 325 nM.

B12: Ab_16 (scFv, V domains shown)
VH: QVQLVQSGGGVVQPGRSLRLSCAASGFTFSNYGMHWVRQAPGKGLEWVALIWERGSKKDYADSVKGRFTVSRDNSKNTLYLQMNSLRPEDTAVYFCAREGISMTGAEYFQHWGQGTLVTVSS
VL: QSVLTQPPSVSGSPGQRVTMSCTGSSSNIGAGYDVHWYQQVPGAAPRLLIYGTNNRPSGVPDRFSGSKSGTSASLTITGLQAEDEADYYCQSYDNSLTDPYVFGTGTKVTVL
In the case of B12, the Kd in assay [1] and in assay [2] was 2.18 nM each time.

B13: S1-RBD-R3-T1-D7 Ab (Ab_34) (scFv, V domains shown)
VH: QVQLVQSGVEVKKPGESLKISCKGSGYSFTSYWIGWVRQMPGKGLEWMGIIYPGDSDTRYSPSFQGQVTISADKSISTAYLQWSSLKASDTAMYYCARTTYSYGSFDYWGQGTLVTVSS
VL: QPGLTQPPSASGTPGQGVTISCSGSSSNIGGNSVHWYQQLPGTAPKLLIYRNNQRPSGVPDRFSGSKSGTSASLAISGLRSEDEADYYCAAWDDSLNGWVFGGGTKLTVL
B13: in assay [1], the equilibrium dissociation constant (Kd) was 0.184 nM.

B14: S1-RBD-R3-T1-C7 Ab (Ab 29) (scFv, V domains shown)
VH: QVQLQQSGPGLVKPSQTLSLTCAISGDSVSSYSDAWNWIRQSPSRGLEWLGRTYYRSKWYNDYAVSVKSRITINPDTSKNQFSLQLSSVTPEDTAVYYCAREIVATTPFRNYYYGMDVWGQGTTVTVSS
VL: NFMLTQPHSVSESPGNTVTISCTRTSGSIASNYVQWYQQRPGSSPTTVIFQDKLRPSGVPDRFSGSIDSSSNSASLTISGLKTEDEADYYCQSYDSSSLWVFGGGTKLTVL
Consider B14, for which the Kd in assay [1] was less than 0.001 nM.

B15: Ab 30 scFv-Fc (RBD-R3-E1-A5) (scFv, V domains shown)
VH: QVQLVQSGGGVVQPGKSLRLSCTASGFTFSDFPIHWVRQAPGKGLEWVGVISYDGNIKYYGDSVKGRFTISRDNAKNSLYLQMNSLRVEDTAVYYCARGGSSFDIWGQGTTVTVSS
VL: SYELTQPPSVSEAPRQRVTISCSGSTSNIGNNAVSWYQHLPGKAPKLLIYYNERLPSGVSDRFSGSKSGTSASLAISGLRSEDEADYYCAAWDDSLSGHVVFGGGTKLTVL
For the molecule B15, the affinity in assay [1], expressed as Kd, was 0.314 nM.

B16: Ab 38 (scFv, V domains shown)
VH: QVTLKESGPTLVKPTQTLTLTCTFSGFSLTTSGVSVGWIRQPPGKALEWLALIHWDDDKRYSPSLRSRLTITRDTSKNQVVLTVTDMDPADTGTYYCASFIMTVYAEYFEDWGQGTLVTVSS
VL: EIVLTQSPATLSVSPGERATLSCRASQSVSSNLAWYQQKPGQAPRLLMYDVSTRATGIPARFSGSGSGTEFSLTISSLQSEDFAVYYCQQRGAWPLTFGGGTKVEIK
With B16, the dissociation constant Kd in assay [1] amounted to 0.22 nM.

B17: Ab 14 scFv-Fc (scFv, V domains shown)
VH: QVQLQQSGPGLVKPSQTLSLTCAISGDSVSSNSAAWNWIRQSPARGLEWLGRTYYRSRWYNDYAISMKSRITINPDTSKNQFSLQLESVTPEDTAVYYCAREIRGFDYWGQGTLVTVSS
VL: QSVLTQPPSASGSPGQSVTISCTGTSSDVGAYNFVSWYQHHPGKAPKLIIYDFNKRPSGVPDRFSGSKSGNTASLTVSGLQADDEADYYCSSYAGSNNFDVVFGGGTKLTVL
Consider B17, for which the dissociation constant (Kd) in assay [1] and in assay [2] was 0.594 nM throughout.

B18: RBD-R3-E1-B3 Ab (Ab_32) (scFv, V domains shown)
VH: QVQLVQSGAEVKKPGESLKISCKGSGYSFTSYWIGWVRQMPGKGLEWMGIIYPGDSDTRYSPSFQGQVTISADKSISTAYLQWSSLKASDTAMYYCARGWQWHDYWGQGTLVTVSS
VL: QTVVTQEPAVSVALGQTVRITCQGDSLRSYYASWYQQKPGQAPVLVVYDKDKRPSGIPDRFSGSTSGNTASLTITGAQAEDEADYYCNSRDRSDNHVVFGGGTKLTVL
B18 registered a Kd in assay [1] of 0.168 nM.

B19: RBD-R3-E1-F5 Ab (Ab_36) (scFv, V domains shown)
VH: QVQLQQSGPGLVKPSQTLSLTCAIFGDSVTSNSAAWNWIRQSPSRGLEWLGRTYYSSKWYNDYAVSVKSRVTINADTSKNQLSLQLNSVTPEDTAVYYCARGWLRLSFDPWGQGTLVTVSS
VL: NFMLTQPHSVSESPGKTVTISCTGSSGSIASNYVQWLQQRLGSAPTTVIYEDNQRPSGVPDRFSGSIDSSSNSASLTISGLKTEDEADYYCQSYDPNNHGVVFGGGTKLTVL
Molecule B19 came in with a Kd in assay [1] of 0.0306 nM.

B20: Ab 26 scFv-Fc (scFv, V domains shown)
VH: QVQLVQSGGGLVQPGRSLRLSCAASGFTFDDYAMHWVRQVPGKGLEWVSGIDWNSGVIGYADSVKGRFTISRDNAKNSLYLQMNSLRAEDTALYYCAKDAYSYGFLGAFDIWGQGTMVTVSS
VL: LPVLTQPPSVSVAPGQTASITCGGDNIRTKGVHWYQQKPGQAPLLVIYYASDRPSGIPERFSGSSSGNTATLTISRVEAGDEADYYCQVWDSSSDLVVFGGGTTLTVL
B20: the Kd in assay [1] and in assay [2] was 0.0875 nM in each case.

B21: Ab 19 scFv-Fc (scFv, V domains shown)
VH: EVQLVESGAEVKKPGESLKISCKGSGYSFTSYWIGWVRQMPGKGLEWMGIIYPGDSDTRYSPSFQGQVTISADKSISTAYLQWSSLKASDTAMYYCARRGDLDAFDIWGQGTMVTVSS
VL: QPGLTQPPAASGTPGQRVTVSCSGASANIGSNAVSWFKQFPETAPRLLISGNTHRPSGVPDRVSGSKSGTSASLTISGLQSDDEADYYCAAWDDSLNGYVFGSGTKVTVL
B21: the equilibrium dissociation constant (Kd) in assay [1] and in assay [2] was 0.13 nM in each case.
